This passage reports Kd and Ki results from patent EP3766894A1.

Positions of bridges follow the written chain, without caps; N, C: chain ends. Non-standard residues stand in square brackets, D forms with d. Primed or numbered codes have the meaning given here. Chains are numbered I, II in the order given. No end group written: not given here. *: point of attachment. Palmitoyl = CCCCCCCCCCCCCCCC(=O)*; hArg = N=C(N)NCCCC[C@H](N)C(=O)O; Nle = CCCC[C@H](N)C(=O)O; PEG2″ = not defined here

Assay [1] concerns the target human serum albumin (HSA) (human), P02768. The experiment in a line: fluorescence polarization.
Assay [2] deals with human Kallikrein-related peptidase 7 (hKLK7) (human), P49862. Briefly: activity assay.
Chain of human Kallikrein-related peptidase 7 (hKLK7) (human), P49862 (P49862 30-253 limits assumed): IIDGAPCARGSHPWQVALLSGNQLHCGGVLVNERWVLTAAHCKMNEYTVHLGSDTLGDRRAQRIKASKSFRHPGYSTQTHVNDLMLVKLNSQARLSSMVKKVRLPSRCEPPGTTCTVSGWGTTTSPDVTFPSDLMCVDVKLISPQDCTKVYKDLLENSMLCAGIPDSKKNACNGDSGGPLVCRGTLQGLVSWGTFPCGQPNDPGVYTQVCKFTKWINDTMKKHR

B1: KLK7 inhibitor 278-tag (final KLK7 inhibitor) (peptide)
peptide 1: PCLY[Nle]A[hArg]CGKG
peptide 2: {fluorescein-PEG2″}-EYEK(Palmitoyl)EYE
modifications: bridge I:2-I:8; not fully specified (bridges); also: chain 2 C-terminus joined via PEG2 to Lys side chain of GKG linker
With B1, the Kd in assay [1] came out at 164 nM. Moreover, in assay [2], the Ki worked out at 7.4 nM.
